Residue numbers refer to the chain shown, from its start. Each block holds one binder with its values, some of them ahead of it.
Key:
[1] = target: T1, human CD3e (T-cell surface glycoprotein CD3 epsilon chain) (human, UniProt P07766 23-207); assay: flow cytometry, human PBMC, antibody 0.1 µg/mL, anti-human IgG Fc-Alexa Fluor647 (1:500), anti-hTcRβ-PerCP (1:30)
T1 construct: Target of the anti-hCD3e antibodies on human PBMC, Jurkat cells and cells expressing human CD3e; on T cells it is part of the CD3/TCR complex; also called hCD3e; CD3e on human PBMC
Description: (§1) PBMC cells were collected from a human subject. After being thawed, the cells were cultured for 3-4 hours. The medium was then discarded, and the cells were resuspended in phosphate-buffered saline (PBS). The cell concentration was then adjusted to 2×10⁶/25 μl PBS.
(§2) A 96-well plate was prepared. 25 ul of cell suspension was added to each well. […] The cells and the antibodies were incubated. After centrifuge, the residues were discarded. The samples were washed again. 25 ul of PBS was then added to each well to resuspend cells.
(§3) Anti-human IgG Fc-Alexa Fluror647 (1:500) and anit-hTcRβ PerCP (1:30) were then added to each well. The cells and the antibodies were incubated and then the cells were washed again by PBS. 300 ul of PBS was then added to each well to resuspend the cells. FACS was performed.

[2] = target: T1, human CD3e (T-cell surface glycoprotein …); assay: flow cytometry, human PBMC, antibody 10 µg/mL, anti-human IgG Fc-Alexa Fluor647 (1:500), anti-hTcRβ-PerCP (1:30)
Description: as §1
A 96-well plate was prepared. 25 ul of cell suspension was added to each well. Anti-hCD3e antibodies with different combinations of humanized 1B1 heavy chain variants and humanized 1B1 light chain variants were diluted to 20 ug/ml (2×) in PBS, and were added to the 96-well plate. The cells and the antibodies were incubated. After centrifuge, the residues were discarded. The samples were washed again. 25 ul of PBS was then added to each well to resuspend cells.
as §3

[3] = target: T2, monkey CD3e (Macaca fascicularis) on PBMC (Macaca fascicularis, UniProt Q95LI5 22-198); assay: flow cytometry, Macaca fascicularis PBMC, antibody concentration not given, anti-human IgG Fc-Alexa Fluor647 (1:500), anti-hTcRβ-PerCP (1:30)
T2 construct: Target on PBMC from Macaca fascicularis; also called mfCD3e; monkey PBMC
T2 sequence (Q95LI5 22-198 limits assumed): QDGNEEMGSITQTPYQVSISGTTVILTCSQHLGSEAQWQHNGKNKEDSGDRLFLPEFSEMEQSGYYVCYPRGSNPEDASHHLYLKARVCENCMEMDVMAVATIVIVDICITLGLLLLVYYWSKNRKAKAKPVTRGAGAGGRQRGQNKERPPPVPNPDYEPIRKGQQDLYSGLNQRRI
Description: A 96-well plate was prepared. 25 ul of cell suspension was added to each well. Anti-hCD3 antibodies were added to the 96-well plate. The cells and the antibodies were incubated for 15 minutes at 4° C. 185 ul PBS was then added to each well. After centrifuge at 2000 rpm for 5 minutes, the medium was discarded. The samples were washed again. 25 ul of PBS was then added to resuspend cells.
Anti-human IgG Fc-Alexa Fluror647 (1:500) and anti-hTcRβ PerCP (1:30) were then added to each well. The cells and the antibodies were incubated for 15 minutes at 4° C. 185 ul PBS was then added to each well. After centrifuge, the residues were discarded. The samples were washed again. 25 ul of PBS was then added to resuspend cells. […] In contrast, anti-hTcRβ PerCP cannot bind to monkey PBMC.

[4] = target: T3, Histidine-tagged human CD3e protein (human, UniProt P07766 23-126); assay: SPR (Biacore), human CD3e
T3 construct: also called hCD3e-His; not shown: His tag

[5] = target: T1, human CD3e (T-cell surface glycoprotein …); assay: cell-based or functional assay
[6] = target: T1, human CD3e (T-cell surface glycoprotein …); assay: flow cytometry, human PBMC, antibody 1 µg/mL, anti-human IgG Fc-Alexa Fluor647 (1:500), anti-hTcRβ-PerCP (1:30)
Description: as §1, §2, §3

[7] = target: T4, Cynomolgus CD3 epsilon Protein, His Tag (Acrobiosystems, Cat #CDE-05226) (cynomolgus (Macaca fascicularis), UniProt Q95LI5 22-117); assay: SPR (Biacore), cynomolgus CD3e His tag
T4 construct: also called monkey CD3e; not shown: His tag
T4 sequence: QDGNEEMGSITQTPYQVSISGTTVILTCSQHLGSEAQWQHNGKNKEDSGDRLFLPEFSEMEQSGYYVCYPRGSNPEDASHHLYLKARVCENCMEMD
Description: The binding affinity of the anti-hCD3e antibodies with monkey CD3e (Cynomolgus CD3 epsilon Protein (SEQ ID NO: 39 AA Gln 22-Asp 117), His Tag, Acrobiosystems, Cat #CDE-05226) were also measured using surface plasmon resonance (SPR) using Biacore (Biacore, INC, Piscataway N.J.) by the methods as described in the examples.

B1: 1B1-H2K2-IgG1-LALA (antibody, V domains shown)
VH: QVQLVQSGAEVKKPGASVKLSCKASGYTFTSYWMHWVRQAPGQGLEWIGNIYPDSGTTNYGEKFKTRVTLTVDTSTSTAYMELSSLRSEDTAVYYCTRDTSGQYYFDYWGQGTLVTVSS
VL: DIVMTQSPDSLAVSAGERVTMNCKSSQSLLNSRTRKNYLAWYQHKPGQSPKLLIYWASTRESGVPDRFSGSGSGTDFTLTISSLQAEDVAVYYCVQSFSLRAFGGGTKVEIK
notes: Humanized; human IgG1 with LALA mutations; also called H2K2 (humanized 1B1)
upper left quadrant, percent of cells AF647+ / hTcRβ-PerCP- [1]: 14.1% | upper right quadrant, percent of cells AF647+ / hTcRβ-PerCP+ [1]: 47.1% | upper left quadrant, percent of cells AF647+ / hTcRβ-PerCP- [2]: 9.49% | upper right quadrant, percent of cells AF647+ / hTcRβ-PerCP+ [2]: 63.3% | upper left quadrant, percent of cells AF647+ / hTcRβ-PerCP- [3]: 84.5% | upper right quadrant, percent of cells AF647+ / hTcRβ-PerCP+ [3]: 11.1% | Kd [4]: 1.65 nM | koff [4]: 0.000881 s⁻¹ | kon [4]: 535000 M⁻¹ s⁻¹ | EC50, luciferase of Jurkat-Luc-NFAT cells; antibody from supernatant [5]: > 5.24 µg/mL | upper left quadrant, percent of cells AF647+ / hTcRβ-PerCP- [6]: 10.2% | upper right quadrant, percent of cells AF647+ / hTcRβ-PerCP+ [6]: 61% | Kd [7]: 6.66 nM | koff [7]: 0.000665 s⁻¹ | kon [7]: 99800 M⁻¹ s⁻¹

B4: 1B1-H1K3-IgG1-LALA (antibody, V domains shown)
VH: B1 VH with L20V
VL: B1 VL with L84V, V109L
notes: Humanized; human IgG1 with LALA mutations; also called H1K3 (humanized 1B1)
upper left quadrant, percent of cells AF647+ / hTcRβ-PerCP- [1]: 13.9% | upper right quadrant, percent of cells AF647+ / hTcRβ-PerCP+ [1]: 50% | upper left quadrant, percent of cells AF647+ / hTcRβ-PerCP- [2]: 10.5% | upper right quadrant, percent of cells AF647+ / hTcRβ-PerCP+ [2]: 60% | upper left quadrant, percent of cells AF647+ / hTcRβ-PerCP- [3]: 83.3% | upper right quadrant, percent of cells AF647+ / hTcRβ-PerCP+ [3]: 13.6% | Kd [4]: 3.28 nM | koff [4]: 0.00051 s⁻¹ | kon [4]: 155000 M⁻¹ s⁻¹ | EC50, luciferase of Jurkat-Luc-NFAT cells; antibody from supernatant [5]: > 6.94 µg/mL | upper left quadrant, percent of cells AF647+ / hTcRβ-PerCP- [6]: 11% | upper right quadrant, percent of cells AF647+ / hTcRβ-PerCP+ [6]: 58.6% | Kd [7]: 4.39 nM | koff [7]: 0.000739 s⁻¹ | kon [7]: 169000 M⁻¹ s⁻¹

Now those with a lower Kd [4], led by results:

upper left quadrant, percent of cells AF647+ / hTcRβ-PerCP- [1]: 12.6% | upper right quadrant, percent of cells AF647+ / hTcRβ-PerCP+ [1]: 54% | upper left quadrant, percent of cells AF647+ / hTcRβ-PerCP- [2]: 11% | upper right quadrant, percent of cells AF647+ / hTcRβ-PerCP+ [2]: 59.7% | upper left quadrant, percent of cells AF647+ / hTcRβ-PerCP- [3]: 73.2% | upper right quadrant, percent of cells AF647+ / hTcRβ-PerCP+ [3]: 24.4% | Kd [4]: 0.959 nM | koff [4]: 0.000614 s⁻¹ | kon [4]: 640000 M⁻¹ s⁻¹ | EC50, luciferase of Jurkat-Luc-NFAT cells; antibody from supernatant [5]: > 3 µg/mL | upper left quadrant, percent of cells AF647+ / hTcRβ-PerCP- [6]: 10.4% | upper right quadrant, percent of cells AF647+ / hTcRβ-PerCP+ [6]: 61.7%
B2: 1B1-H4K2-IgG1-LALA (antibody, V domains shown)
VH: B1 VH with K12V, A40R, P41H, V68G
VL: B1 VL
notes: Humanized; human IgG1 with LALA mutations; also called H4K2 (humanized 1B1)

upper left quadrant, percent of cells AF647+ / hTcRβ-PerCP- [1]: 11.9% | upper right quadrant, percent of cells AF647+ / hTcRβ-PerCP+ [1]: 54.8% | upper left quadrant, percent of cells AF647+ / hTcRβ-PerCP- [2]: 8.68% | upper right quadrant, percent of cells AF647+ / hTcRβ-PerCP+ [2]: 61.6% | upper left quadrant, percent of cells AF647+ / hTcRβ-PerCP- [3]: 69.5% | upper right quadrant, percent of cells AF647+ / hTcRβ-PerCP+ [3]: 26.2% | Kd [4]: 1.42 nM | koff [4]: 0.000621 s⁻¹ | kon [4]: 438000 M⁻¹ s⁻¹ | EC50, luciferase of Jurkat-Luc-NFAT cells; antibody from supernatant [5]: 1.42 µg/mL | upper left quadrant, percent of cells AF647+ / hTcRβ-PerCP- [6]: 12% | upper right quadrant, percent of cells AF647+ / hTcRβ-PerCP+ [6]: 58% | Kd [7]: 9.51 nM | koff [7]: 0.000869 s⁻¹ | kon [7]: 91400 M⁻¹ s⁻¹
B3: 1B1-H1K1-IgG1-LALA (antibody, V domains shown)
VH: B1 VH with L20V
VL: B1 VL with V19A
notes: Humanized; human IgG1 with LALA mutations; also called H1K1 (humanized 1B1)
